# Results taken from patent publication US4254225A, “Novel neutral glucoamylase and method for its production” (priority 1978, dated 1981).
# B1: Aspergillus niger Glucoamylase: conventional glucoamylase from Aspergillus niger, available from Enzyme Development Corporation (protein, UniProt P69328 25-640, looked up)
# Glucoamylase: ATLDSWLSNEATVARTAILNNIGADGAWVSGADSGIVVASPSTDNPDYFYTWTRDSGLVLKTLVDLFRNGDTSLLSTIENYISAQAIVQGISNPSGDLSSGAGLGEPKFNVDETAYTGSWGRPQRDGPALRATAMIGFGQWLLDNGYTSTATDIVWPLVRNDLSYVAQYWNQTGYDLWEEVNGSSFFTIAVQHRALVEGSAFATAVGSSCSWCDSQAPEILCYLQSFWTGSFILANFDSSRSGKDANTLLGSIHTFDPEAACDDSTFQPCSPRALANHKEVVDSFRSIYTLNDGLSDSEAVAVGRYPEDTYYNGNPWFLCTLAAAEQLYDALYQWDKQGSLEVTDVSLDFFKALYSDAATGTYSSSSSTYSSIVDAVKTFADGFVSIVETHAASNGSMSEQYDKSDGEQLSARDLTWSYAALLTANNRRNSVVPASWGETSASSVPGTCAATSAIGTYSSVTVTSWPSIVATGGTTTTATPTGSGSVTSTSKTTATASKTSTSTSSTSCTTPTAVAVTFDLTATTTYGENIYLVGSISQLGDWETSDGIALSADKYTSSDPLWYVTVTLPAGESFEYKFIRIESDDSVEWESDPNREYTVPQACGTSTATVTDTWR
# What was measured:
# [1] = Substrate specificity: reaction rate on various substrates at 1% concentration; type: biochemical
# Method: ^a The enzymatic activities of each glucoamylase were determined with
# the substrates present at a 1% concentration; each enzyme' s activity in
# relation to dextrin was assigned the value 100, and the activities on the
# other substrates are presented as relative
# (§1) A 0.5-ml aliquot of a suitably diluted enzyme solution was added to 0.5 ml of a 2% solution of a spray-dried maltodextrin (D.E. about 10) in 0.1 M acetate buffer solution (pH 6.0) and this was incubated at 60° C. for precisely 10 minutes. The enzyme reaction was then stopped by heating the mixture for 5 minutes in a boiling water bath. The amount of dextrose produced was determined by the glucose oxidase method. The amount of enzyme producing 1 micromole of dextrose per minute was defined as 1 unit.
# [2] = type: biochemical; details: values marked with an asterisk (own)
# [3] = Relationship between reaction pH and enzymatic activity (optimum pH); type: biochemical; details: values marked with an asterisk (own)
# Method: as §1
# [4] = Saccharification of about 30% starch hydrolyzate to dextrose; type: biochemical; details: same substrate concentration as Example 3; pH 4.3 at 60° C.
molecule,measurement,setting,value
B1,Reaction Rate,"[1]; substrate Amylpectin, relative to dextrin = 100",113
same,Reaction Rate,"[1]; substrate Dextrin (D.E. 10), relative, activity on dextrin assigned 100",100
same,Reaction Rate,"[1]; substrate Glycogen, relative to dextrin = 100",100
same,Reaction Rate,"[1]; substrate Maltohexaose, relative to dextrin = 100",100
same,Reaction Rate,"[1]; substrate Maltose, relative to dextrin = 100",26
same,Reaction Rate,"[1]; substrate Maltotriose, relative to dextrin = 100",12
same,Reaction Rate,"[1]; substrate Panose, relative to dextrin = 100",47
same,Reaction Rate,"[1]; substrate Pullulan, relative to dextrin = 100",2
same,Reaction Rate,"[1]; substrate Soluble Starch, relative to dextrin = 100",95
same,Optimum Temp.,[2],70 °C
same,Optimum pH,[3],4.5
same,dextrose yield,[4],96.5%
